Source: patent publication US20090118183A1 (AFFYMAX, published 2009)
Read-outs that look alike come from different tables or passages of the source. Values belong to the binder of their own block, whether it stands above or below them. Bridge positions count the residues as written; N and C are the ends. Square brackets hold non-standard residues; d marks the D form. Ends that are not written are not given here. 1Nal = N[C@@H](Cc1cccc2ccccc12)C(=O)O; Sar = CNCC(=O)O

Tests used:
[1] = biological target: T1, chimeric receptor comprising the extra-cellular portion of the human EPO receptor to the intra-cellular … (human, UniProt P19235 25-250; Q99062 651-836, limits assumed); experiment: cell-based or functional assay
T1 sequence (looked up): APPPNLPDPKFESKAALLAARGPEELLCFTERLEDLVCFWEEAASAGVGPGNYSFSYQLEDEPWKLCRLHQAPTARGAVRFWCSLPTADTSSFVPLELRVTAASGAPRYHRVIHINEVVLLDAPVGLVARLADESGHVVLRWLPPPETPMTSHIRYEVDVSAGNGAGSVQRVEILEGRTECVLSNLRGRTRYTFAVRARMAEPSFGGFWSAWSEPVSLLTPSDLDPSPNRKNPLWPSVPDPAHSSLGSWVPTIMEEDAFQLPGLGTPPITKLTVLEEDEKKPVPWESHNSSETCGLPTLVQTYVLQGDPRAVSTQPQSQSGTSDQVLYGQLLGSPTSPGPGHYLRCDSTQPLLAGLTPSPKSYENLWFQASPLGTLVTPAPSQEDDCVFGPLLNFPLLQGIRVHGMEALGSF

[2] = biological target: T2, human EPO-R (human, UniProt P19235 25-508); experiment: cell-based or functional assay
T2 sequence (looked up): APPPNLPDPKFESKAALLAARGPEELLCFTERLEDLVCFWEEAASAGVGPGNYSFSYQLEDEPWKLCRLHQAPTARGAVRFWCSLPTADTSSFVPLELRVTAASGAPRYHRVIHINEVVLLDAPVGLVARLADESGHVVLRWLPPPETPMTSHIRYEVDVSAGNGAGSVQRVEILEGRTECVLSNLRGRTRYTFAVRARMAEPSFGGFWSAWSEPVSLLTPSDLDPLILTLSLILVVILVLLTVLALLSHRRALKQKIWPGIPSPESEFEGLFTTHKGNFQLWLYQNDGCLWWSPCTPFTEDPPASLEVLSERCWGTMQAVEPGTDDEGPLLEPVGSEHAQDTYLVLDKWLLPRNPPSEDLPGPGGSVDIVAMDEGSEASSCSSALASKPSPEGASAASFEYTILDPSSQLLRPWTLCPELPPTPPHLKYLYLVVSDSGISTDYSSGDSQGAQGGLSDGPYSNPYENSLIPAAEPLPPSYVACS

[3] = biological target: T3, Recombinant Human EPO R/Fc Chimera (human, UniProt P19235 25-250); experiment: radioligand competition: displacement of 125I-EPO from recombinant human EPO R/Fc, Protein-G Sepharose pull-down
T3 construct: extracellular domain; Bought reagent (R&D Systems, catalog 963-ER); also called recombinant EPOr extracellular domain fused to the Fc portion of human IgG1; recombinant erythropoietin receptor; not shown: Fc portion of human IgG1
T3 sequence (looked up): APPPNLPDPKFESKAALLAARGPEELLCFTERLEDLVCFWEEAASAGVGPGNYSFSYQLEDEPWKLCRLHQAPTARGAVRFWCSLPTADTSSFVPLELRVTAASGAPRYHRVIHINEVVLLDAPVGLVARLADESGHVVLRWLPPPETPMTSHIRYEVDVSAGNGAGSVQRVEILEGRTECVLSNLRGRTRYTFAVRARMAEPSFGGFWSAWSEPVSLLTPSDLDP

[4] = biological target: recombinant EPO-R (produced in Chinese Hamster Ovary cells as a fusion protein to a portion of the human … (human, UniProt P05187 489-506)); experiment: competitive binding; column headed only 'IC50 (pM)'; taken as the AQ bead proximity assay against the biotinylated peptide tracer (SEQ ID NO: 4) per paragraph 299
[5] = biological target: T1, chimeric receptor comprising the …; experiment: cell-based or functional assay; remark: listed apart in the source
[6] = biological target: T2, human EPO-R; experiment: cell-based or functional assay; remark: listed apart in the source

Reporter EC50 (pM) [1]: 195 pM | Proliferation EC50 (pM) [2]: 165 pM | IC50 [3]: 0.111 nM
B1: Peptide I (SEQ ID NO: 2) (peptide)
peptide: Ac-GGLYACHMGPIT[1Nal]VCQPLR[Sar]K
modifications: disulfide 6-15; not fully specified (residue 21); printed as (AcG)GLYACHMGPIT(1-nal)VCQPLR(MeG)K; also: homodimer, Lys21 epsilon-N joined to branched tertiary amide linker carrying PEG
notes: also called Peptide 1

IC50 [4]: 0.11 nM
B2: Peptide II (SEQ ID NO: 3) (peptide)
peptide: Ac-GGLYACHMGPIT[1Nal]VCQPLR[Sar]
modifications: disulfide 6-15; also: homodimer: C-termini joined to alpha- and epsilon-amino groups of a lysine linker carrying spacer and PEG, not shown

Reporter EC50 (pM) [5]: 150 pM | Proliferation EC50 [6]: 72 nM
B3: Peptide III (SEQ ID NO: 3) (peptide)
peptide: Ac-GGLYACHMGPIT[1Nal]VCQPLR[Sar]
modifications: disulfide 6-15; also: homodimer: C-termini joined to alpha- and epsilon-amino groups of a lysine linker carrying spacer and PEG, not shown
